# Test results taken from paper doi:10.1101/2020.12.04.411645 (bioRxiv, 2020).
# B1: MBP-tagged full-length CYRI-B (natural protein)
# chain: MGNLLKVLTCTDLEQGPNFFLDFENAQPTESEKEIYNQVNVVLKDAEGILEDLQSYRGAGHEIREAIQHPADEKLQEKAWGAVVPLVGKLKKFYEFSQRLEAALRGLLGALTSTPYSPTQHLEREQALAKQFAEILHFTLRFDELKMTNPAIQNDFSYYRRTLSRMRINNVPAEGENEVNNELANRMSLFYAEATPMLKTLSDATTKFVSENKNLPIENTTDCLSTMASVCRVMLETPEYRSRFTNEETVSFCLRVMVGVIILYDHVHPVGAFAKTSKIDMKGCIKVLKDQPPNSVEGLLNALRYTTKHLNDETTSKQIRSMLQ
# Target: untagged full-length RAC1 Q61L (UniProt P63000 1-192, Q61L)
# Assay: SPR
binder,measurement,value
B1,Kd,18.3 µM
